According to publication PMC12285911 (2025):

Biological target: T1, ^FAMFAT10 (GG–FAT10 N-terminally labeled with fluorescein amidite by sortase) (human, 5-FAM on the N terminus (5-FAM conjugated to the N terminus of the peptide …, attached by sortase))
T1 chain: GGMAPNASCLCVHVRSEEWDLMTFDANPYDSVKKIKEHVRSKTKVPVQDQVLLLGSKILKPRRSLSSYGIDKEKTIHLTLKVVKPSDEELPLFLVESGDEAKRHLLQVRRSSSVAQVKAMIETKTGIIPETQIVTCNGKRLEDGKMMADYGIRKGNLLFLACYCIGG
Test: FP

Kd: 152 nM
B1: NUB1^Δ1–175 (domain or fragment)
chain: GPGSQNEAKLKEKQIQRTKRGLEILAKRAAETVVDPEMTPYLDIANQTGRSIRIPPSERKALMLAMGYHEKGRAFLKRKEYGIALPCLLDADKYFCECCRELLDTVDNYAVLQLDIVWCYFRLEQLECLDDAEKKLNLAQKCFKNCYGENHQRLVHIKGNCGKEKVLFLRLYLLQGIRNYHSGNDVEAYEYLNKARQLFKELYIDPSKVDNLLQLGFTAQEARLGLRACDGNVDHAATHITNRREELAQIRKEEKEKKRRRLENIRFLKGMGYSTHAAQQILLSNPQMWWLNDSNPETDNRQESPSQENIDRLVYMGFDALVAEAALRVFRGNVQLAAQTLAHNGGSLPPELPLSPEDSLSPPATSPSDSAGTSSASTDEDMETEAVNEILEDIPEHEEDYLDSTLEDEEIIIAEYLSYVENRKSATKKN
